In the supplement of paper PMC7125110:
± gives the standard error. For some assays here: Variants at the floor of the assay were thinned out.

B1: glmS ribozyme (parent)
chain: AUAAAAGCGCCAGAACUACAGAAAUGUAGUUGACGAGGAGGAGGUUUAUCGAAUUUUCGGCGGAUGCCUCCAAA

Assays:
Conditions in all cases: with glucosamine-6-phosphate
glucosamine-6-phosphate [1] = variants of: B1; test: kcat; higher = faster cleavage; RNA array
Method in brief: (§1)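 Barcoded ribozyme variants on sequenced MiSeq chips were transcribed in situ by E. coli RNA polymerase and followed at 37 °C through a hybridised Cy3 probe. Glucosamine-6-phosphate at 40 μM to 10 mM in HEPES/KCl/Mg(OAc)2 buffer was flowed in, and tiles were imaged over ~14 h. Signals were normalised to baseline and to non-cleaving reference variants, and per-tile medians were fit to one- or two-exponential decays to give kobs. Weighted Michaelis–Menten fits across concentrations gave kcat and KM.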

glucosamine-6-phosphate [2] = variants of: B1; test: self-cleavage kobs at 640 uM GlcN6P; higher = faster cleavage; RNA array
Method in brief: as §1

glucosamine-6-phosphate [3] = variants of: B1; test: self-cleavage kobs at 10000 uM GlcN6P; higher = faster cleavage; RNA array
Method in brief: as §1

glucosamine-6-phosphate [4] = variants of: B1; test: KM; higher = weaker cofactor use; RNA array
Method in brief: as §1

glucosamine-6-phosphate [5] = variants of: B1; test: self-cleavage kobs at 40 uM GlcN6P; higher = faster cleavage; RNA array
Method in brief: as §1

glucosamine-6-phosphate [6] = variants of: B1; test: self-cleavage kobs at 160 uM GlcN6P; higher = faster cleavage; RNA array
Method in brief: as §1

glucosamine-6-phosphate [7] = variants of: B1; test: self-cleavage kobs at 2500 uM GlcN6P; higher = faster cleavage; RNA array
Method in brief: as §1

| Variant | kcat (glucosamine-6-phosphate [1]) | self-cleavage kobs at 640 uM GlcN6P (glucosamine-6-phosphate [2]) | self-cleavage kobs at 10000 uM GlcN6P (glucosamine-6-phosphate [3]) | KM (glucosamine-6-phosphate [4]) | self-cleavage kobs at 40 uM GlcN6P (glucosamine-6-phosphate [5]) | self-cleavage kobs at 160 uM GlcN6P (glucosamine-6-phosphate [6]) | self-cleavage kobs at 2500 uM GlcN6P (glucosamine-6-phosphate [7]) |
| --- | --- | --- | --- | --- | --- | --- | --- |
| C11U U55G C70G | 9.32e-05 ± 8.6e-06 s⁻¹ | 7.75e-05 ± 2.5e-05 s⁻¹ | 8.94e-05 ± 1.7e-05 s⁻¹ |  |  |  |  |
| C11U U56A | 0.00124 ± 0.00023 s⁻¹ | 0.000294 ± 4.5e-05 s⁻¹ | 0.00125 ± 0.00016 s⁻¹ | 1910 ± 580 µM | 3.72e-05 ± 1e-05 s⁻¹ | 0.000103 ± 1.4e-05 s⁻¹ | 0.000621 ± 7.2e-05 s⁻¹ |
| A6G C70A | < 1e-05 s⁻¹ |  | < 1e-05 s⁻¹ |  | < 1e-05 s⁻¹ |  |  |
| U46G C50A | < 1e-05 s⁻¹ |  |  |  |  | < 1e-05 s⁻¹ |  |
| A48U U55C | 0.000437 ± 6.5e-05 s⁻¹ | 0.000116 ± 2.5e-05 s⁻¹ | 0.000378 ± 6.8e-05 s⁻¹ | 2190 ± 650 µM |  |  | 0.000214 ± 3.6e-05 s⁻¹ |
| U47G C61U | 2.06e-05 ± 4.9e-06 s⁻¹ |  |  |  | < 1e-05 s⁻¹ |  |  |
| C58G G66U | 1.05e-05 ± 2.2e-06 s⁻¹ |  |  |  |  | < 1e-05 s⁻¹ |  |
| U45G U69G | 0.000184 ± 5.8e-05 s⁻¹ |  | 0.000152 ± 3.8e-05 s⁻¹ |  |  |  |  |
| G41C A64G | 0.000146 ± 1.2e-05 s⁻¹ | 3.48e-05 ± 8.4e-06 s⁻¹ | 0.000122 ± 8.8e-06 s⁻¹ | 1760 ± 510 µM |  |  | 0.000107 ± 1.8e-05 s⁻¹ |
| U45C A53G | 0.00416 ± 0.0017 s⁻¹ | 0.000905 ± 0.00016 s⁻¹ | 0.00291 ± 0.00074 s⁻¹ |  |  | 0.000134 ± 4.9e-05 s⁻¹ | 0.00188 ± 0.00042 s⁻¹ |
| U47G C68A | 6.42e-05 ± 2.2e-05 s⁻¹ | 0.000121 ± 2.4e-05 s⁻¹ | 3.58e-05 ± 1.2e-05 s⁻¹ |  |  | 4.97e-05 ± 2e-05 s⁻¹ | 9.07e-05 ± 1.6e-05 s⁻¹ |
| G44C U46A | 7.73e-05 ± 1.3e-05 s⁻¹ |  | 7.15e-05 ± 9.9e-06 s⁻¹ |  | < 1e-05 s⁻¹ |  | 0.000108 ± 2.5e-05 s⁻¹ |
| C16G U57A C68U | 4.17e-05 ± 9.1e-06 s⁻¹ |  |  |  |  |  | 5.4e-05 ± 2.1e-05 s⁻¹ |
| C61U G62A | < 1e-05 s⁻¹ | < 1e-05 s⁻¹ | < 1e-05 s⁻¹ |  |  | < 1e-05 s⁻¹ |  |
| A14C A33C | < 1e-05 s⁻¹ | < 1e-05 s⁻¹ |  |  | < 1e-05 s⁻¹ |  |  |
| G41C U56A | 0.000159 ± 4.4e-05 s⁻¹ | 2.18e-05 ± 1e-05 s⁻¹ | 0.000121 ± 1.5e-05 s⁻¹ |  |  |  | 0.000129 ± 3e-05 s⁻¹ |
| C34G C70A | 1.99e-05 ± 6.8e-06 s⁻¹ |  |  |  |  |  |  |
| A33C A39G | 0.0011 ± 0.0002 s⁻¹ | 0.000138 ± 1.9e-05 s⁻¹ | 0.000722 ± 8.1e-05 s⁻¹ | 5030 ± 1400 µM |  |  | 0.000373 ± 9.9e-05 s⁻¹ |
| G40C U46C | 0.00119 ± 0.00012 s⁻¹ | 0.000304 ± 6.3e-05 s⁻¹ | 0.000967 ± 0.00024 s⁻¹ | 1800 ± 280 µM |  | 9.41e-05 ± 1.9e-05 s⁻¹ | 0.000729 ± 0.00014 s⁻¹ |
| U31G G44U | 0.000237 ± 6.3e-05 s⁻¹ |  | 0.000129 ± 3e-05 s⁻¹ | 8740 ± 3600 µM |  |  | 4.98e-05 ± 1.3e-05 s⁻¹ |

| Variant | kcat (glucosamine-6-phosphate [1]) | self-cleavage kobs at 640 uM GlcN6P (glucosamine-6-phosphate [2]) | self-cleavage kobs at 10000 uM GlcN6P (glucosamine-6-phosphate [3]) | KM (glucosamine-6-phosphate [4]) | self-cleavage kobs at 40 uM GlcN6P (glucosamine-6-phosphate [5]) | self-cleavage kobs at 160 uM GlcN6P (glucosamine-6-phosphate [6]) | self-cleavage kobs at 2500 uM GlcN6P (glucosamine-6-phosphate [7]) |
| --- | --- | --- | --- | --- | --- | --- | --- |
| G37A A52U | 5.16e-05 ± 5.1e-06 s⁻¹ |  | 3.07e-05 ± 8.4e-06 s⁻¹ | 6790 ± 1600 µM |  | < 1e-05 s⁻¹ |  |
| A15G U56C | 0.0034 ± 0.0013 s⁻¹ | 0.000805 ± 0.00025 s⁻¹ | 0.00354 ± 0.0006 s⁻¹ |  | 5.65e-05 ± 1.3e-05 s⁻¹ | 0.00017 ± 2.9e-05 s⁻¹ | 0.00116 ± 0.00021 s⁻¹ |
| A14U C58A | 0.000695 ± 4.9e-05 s⁻¹ | 0.000162 ± 3.2e-05 s⁻¹ | 0.000594 ± 7.5e-05 s⁻¹ | 2220 ± 300 µM |  | 5.03e-05 ± 1.2e-05 s⁻¹ | 0.000346 ± 4.3e-05 s⁻¹ |
| G7A U69A | 1.56e-05 ± 3.6e-06 s⁻¹ |  |  |  |  |  |  |
| U49C U69G | 1.6e-05 ± 5e-06 s⁻¹ |  |  |  |  |  |  |
| A53U C68A | 5.43e-05 ± 1.6e-05 s⁻¹ | 6.67e-05 ± 8.3e-06 s⁻¹ |  |  |  | 3.62e-05 ± 1e-05 s⁻¹ | 6.54e-05 ± 9.8e-06 s⁻¹ |
| U30C G37C C70U | 1.63e-05 ± 2e-06 s⁻¹ |  |  |  |  |  |  |
| C16U G63U | 1.26e-05 ± 2.3e-06 s⁻¹ |  |  |  |  |  |  |
| A14C U65G | 0.00175 ± 0.00025 s⁻¹ | 0.000206 ± 5.5e-05 s⁻¹ | 0.00117 ± 0.00024 s⁻¹ | 4500 ± 1000 µM |  |  | 0.000717 ± 0.00019 s⁻¹ |
| G7A C16G | < 1e-05 s⁻¹ |  | < 1e-05 s⁻¹ |  | < 1e-05 s⁻¹ | < 1e-05 s⁻¹ | < 1e-05 s⁻¹ |
| A15G C67A C71U | 0.000877 ± 0.00033 s⁻¹ | 0.000523 ± 0.00013 s⁻¹ | 0.00139 ± 0.00024 s⁻¹ |  | 7.86e-05 ± 1.3e-05 s⁻¹ |  | 0.000455 ± 0.00016 s⁻¹ |
| A53C C58U | 3.83e-05 ± 9.3e-06 s⁻¹ |  |  |  | < 1e-05 s⁻¹ | < 1e-05 s⁻¹ |  |
| C67U C70G | 2.32e-05 ± 6.8e-06 s⁻¹ | 2.59e-05 ± 9e-06 s⁻¹ |  |  |  |  | 2.88e-05 ± 6.7e-06 s⁻¹ |
| G44A G66A | 0.000681 ± 0.00022 s⁻¹ | 0.000259 ± 4.6e-05 s⁻¹ | 0.000527 ± 0.0001 s⁻¹ |  |  | 4.37e-05 ± 1.7e-05 s⁻¹ | 0.000848 ± 0.00022 s⁻¹ |
| C11U G29C | 0.00018 ± 9.3e-06 s⁻¹ | 4.1e-05 ± 1.1e-05 s⁻¹ | 0.00015 ± 1.2e-05 s⁻¹ | 1860 ± 290 µM |  |  | 0.000109 ± 1.3e-05 s⁻¹ |
| A53U U57C | 0.000173 ± 5.9e-06 s⁻¹ |  | 0.000151 ± 1.8e-05 s⁻¹ | 1360 ± 210 µM |  |  | 0.000115 ± 2.1e-05 s⁻¹ |
| A12G A14U G32U G60A G66U | < 1e-05 s⁻¹ |  | < 1e-05 s⁻¹ |  |  |  |  |
| A15U | 0.0104 ± 0.0019 s⁻¹ | 0.00245 ± 8.9e-05 s⁻¹ | 0.00847 ± 0.00024 s⁻¹ | 1950 ± 440 µM | 0.000227 ± 4e-06 s⁻¹ | 0.00061 ± 2.2e-05 s⁻¹ | 0.00682 ± 0.00026 s⁻¹ |
| C16U U30A | 0.003 ± 0.00083 s⁻¹ | 0.000648 ± 0.00011 s⁻¹ | 0.00242 ± 0.00027 s⁻¹ | 2310 ± 910 µM | 7.15e-05 ± 7.9e-06 s⁻¹ | 0.000131 ± 2.6e-05 s⁻¹ | 0.00171 ± 0.00029 s⁻¹ |
